Sequences and labels used below:
B1: Hu033-23 (antibody, IgG1, V domains shown)
VH: EVQLVESGGGLVKPGGSLRLSCAASGFTFRSYGMSWVRQAPGKRLEWVSTISSGDSYTYYPDSVKGRFTISRDNAKNSLYLQMNSLKAEDTAVYYCARQIYYDYAYYFDFWGQGTTVTVSS
VL: EIVLTQSPATLSLSPGERATLSCRASESVSFRTSHLMHWYQQKPGQAPRLLIYGASNLESGIPARFSGSGSGTDFTLTISRLEPEDFAVYYCQQSIEDPPTFGGGTKVEIK
notes: Humanized IgG1; also called Hu033-23(BM3)
B2: Hu033-10 (antibody, IgG1, V domains shown)
VH: B1 VH with K87R
VL: DIVLTQSPASLAVSPGQRATITCRASESVSFRTSHLMHWYQQKPGQPPKLLIYGASNLESGVPARFSGSGSETDFTLTINPVEAEDTANYYCQQSIEDPPTFGGGTKVEIK
notes: Humanized IgG1; also called Hu033-10(BM4)
B3: Hu033-20 (antibody, human IgG1, kappa)
heavy: not shown
light: DIVMTQSPDSLAVSLGERATINCRASESVSFRTSHLMHWYQQKPGQPPKLLIYGASNLESGVPDRFSGSGSGTDFTLTISSLQAEDVAVYYCQQSIEDPPTFGGGTKVEIKRTVAAPSVFIFPPSDEQLKSGTASVVCLLNNFYPREAKVQWKVDNALQSGNSQESVTEQDSKDSTYSLSSTLTLSKADYEKHKVYACEVTHQGLSSPVTKSFNRGEC
notes: Humanized IgG1, wild-type Fc; also called Hu033-20(BM3)
B4: Hu033-03 (antibody, human IgG1, kappa)
heavy: not shown
light: DIVLTQSPASLAVSPGQRATITCRASESVSFRTSHLMHWYQQKPGQPPKLLIYGASNLESGVPARFSGSGSETDFTLTINPVEAEDTANYFCQQSIEDPPTFGGGTKVEIKRTVAAPSVFIFPPSDEQLKSGTASVVCLLNNFYPREAKVQWKVDNALQSGNSQESVTEQDSKDSTYSLSSTLTLSKADYEKHKVYACEVTHQGLSSPVTKSFNRGEC
notes: Humanized IgG1, wild-type Fc; also called Hu033-03(BM3)
B5: mAb030 (antibody, V domains shown)
VH: DVQLQESGPGLVKPSQSLSLTCSVTGYSITSAYYWNWIRQFPGNKLECMGYISYDGSNYYNPSLKNRISITRDTSKNQFFLSLNSVTTEDTATYFCVRGGDYDDGGFAYWGQGTLVTVSA
VL: DIQMTQSPASLSASVGETVTITCRASGNIHNYLAWYQQKQGKSPQLLVYNAKTLADGVPSRFSGSGSETQYSLKINSLQPEDFGNYFCQHFWIIPYTFGGGTKLEIK
notes: Mouse hybridoma antibody
B6: mAb027 (antibody, V domains shown)
VH: B5 VH with I38V, K45Q, S53T, Y59N, S82K, F95Y
VL: B5 VL with A55V, E68G, Q70E, N85I, K107R
notes: Mouse hybridoma antibody
B7: mAb020 (antibody, V domains shown)
VH: DVQLQESGPGLVKPSQSLSLTCSVTGYSIASGYYWNWIRQFPGNKLEWMGYISFDGTYNYNPSLKDRFSITRDTSKNQFFLKLNSVTTEDTATYYCARGVDYPNAIDWWGQGTSVTVSS
VL: DIVLTQSPASLAVSLGQRATISCRASESVSMHVTHLIHWYQQKPGQPPKLLIYVASNLESGVPARFSGSGSETDFTLNIHPVEEEDAATYFCQQSFEDPWTFGGGTKLEIK
notes: Mouse hybridoma antibody
B8: mAb022 (antibody, V domains shown)
VH: B7 VH with A30T, N104K, I106M
VL: B7 VL
notes: Mouse hybridoma antibody

Positions count from the first letter of the chain named.

This note sets out measurements from patent publication US20250346673A1 (DUALITY BIOLOGICS SUZHOU, published 2025).

What is called Kd is the free concentration of one partner at which half of the binding sites on the other are occupied at equilibrium, for simple one-to-one binding. In general, koff refers to the rate constant with which the complex falls apart. In general, kon refers to the second-order rate constant of association. For orientation: EC50 means the concentration that produces a half-maximal response.

One assay has as its target T1, human BDCA2 (human, UniProt Q8WTT0 1-213).
T1 sequence (looked up): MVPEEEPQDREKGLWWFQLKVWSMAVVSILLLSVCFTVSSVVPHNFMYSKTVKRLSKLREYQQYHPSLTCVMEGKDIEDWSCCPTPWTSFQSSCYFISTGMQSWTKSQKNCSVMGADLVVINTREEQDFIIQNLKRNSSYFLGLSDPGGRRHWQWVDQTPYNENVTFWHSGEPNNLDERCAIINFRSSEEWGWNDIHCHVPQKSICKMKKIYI
The assay can be described thus: cell-based or functional assay.
Take B1: the “EC50 (nM), inhibition of CpG-A stimulated IFNα release from human PBMC” value (“EC50 (nM), inhibition” below) was 0.03 nM.

For B2, the “EC50 (nM), inhibition” value is 0.01 nM.

B3: the “EC50 (nM), inhibition” value turned out to be 0.01 nM.

In the case of B4, the “EC50 (nM), inhibition” value came to 0.01 nM.

The target in a further assay is T2, human FcγRIIA (R167) (human, UniProt P12318 36-218, limits assumed, biotinylated (site not stated)).
T2 construct: also called Fe γ RIIA(R167); Fcγ RIJA (R167)
T2 sequence (looked up): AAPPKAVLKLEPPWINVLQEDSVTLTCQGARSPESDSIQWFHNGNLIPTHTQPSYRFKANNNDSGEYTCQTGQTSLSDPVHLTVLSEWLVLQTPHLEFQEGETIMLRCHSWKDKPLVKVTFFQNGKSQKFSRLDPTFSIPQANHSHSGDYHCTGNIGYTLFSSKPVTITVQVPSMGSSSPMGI
The assay can be described thus: SPR (BIAcore 8K), biotinylated FcγRIIA (R167) on SA chip, antibody as analyte, 1:1 binding. How it is done:
(§1) Antibody kinetics or affinity parameters were measured using BIAcore 8K and freshly fixed biotinylated human Fe γ RIIA(R167)/Fc γ RIIA (H167) SA chips. The experiment was run at 25° C. with a running buffer of 1×HBS-EP+(10 mM HEPES pH 7.4, 150 mM NaCl, 3 mM EDTA, 0.05% Surfactant P20). […] The binding and dissociation times of the antibody were 60 and 90 seconds, respectively. Two zero concentration samples are used to remove background signals. The sample was injected in a multi cycle manner, the analyte can be fully dissociated from the chip surface at the end of each cycle, and no regeneration step was applied. Data analysis was perform using Biacore Insight Evaluation Software (Version 2.0.15.12933). After deducting the reference channel (flow cell 1) and two zero concentration signals, affinity analysis was performed using a 1:1 binding model or steady-state model for curve fitting and calculation of kinetic parameters.
In general terms: In SPR one partner is held on a chip, and binding of the other changes the refractive index at the surface.
B3 displayed a dissociation constant Kd of 578000 pM, a koff of 0.838 s⁻¹ and a kon of 1.45e+06 M⁻¹ s⁻¹.

In turn, B4 gave a Kd of 510000 pM, a koff of 0.782 s⁻¹ and a kon of 1.53e+06 M⁻¹ s⁻¹.

The target of another assay is T3, cynomolgus BDCA2 (cynomolgus monkey, UniProt A0A2K5UWP4 1-212).
T3 construct: whole, on cells; also called Cyno BDCA2; cynoBDCA2
T3 sequence: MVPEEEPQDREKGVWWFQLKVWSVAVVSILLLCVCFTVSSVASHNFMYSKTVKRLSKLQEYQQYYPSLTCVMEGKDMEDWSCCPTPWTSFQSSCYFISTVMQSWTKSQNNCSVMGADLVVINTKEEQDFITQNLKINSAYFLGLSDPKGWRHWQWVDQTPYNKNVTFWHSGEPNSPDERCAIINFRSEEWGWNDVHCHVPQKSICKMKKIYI
Kind of assay: FACS, 293F-cynoBDCA2 cells. Here is the method: (§2) The cells were recovered and resuspended to 2×10⁶/mL with FACS buffer (PBS+2% FBS). The resuspended cells were added to 3799 cell plates at 100 μL/well, and the supernatant was discarded after centrifugation at 300 g. […] The cells were incubated at 4° C. for 1 h. The incubated cells were centrifuged at […] for 5 min and washed twice with FACS buffer. 100 μL Goat anti-Human IgG (H+L) Cross-Adsorbed Secondary Antibody, Alexa Fluor 488 (Sigma, A11013; 1:1000) secondary antibody was added, washed twice with FACS buffer after incubation at 4° C. for 1 h. The cells were resuspended with PBS, then the fluorescence signal of antibodies bound to cell surface was analyzed with FACS (BD FACS CantoTM II) instrument and curves were fitted with GraphPad Prism6 to calculate EC₅₀ values for antibodies binding to BDCA2 antigen.
On the technique in general: In flow cytometry, cells or beads pass a laser one at a time.
B1 displayed an EC50 of 1240 pM.

Turning to B2, a half-maximal response (EC50) required 1270 pM. This EC50 and that of the molecule before are within 1.5-fold of each other.

With B3, the concentration giving a half-maximal response (EC50) was 1220 pM.

B4: the 50% effective concentration (EC50) was found to be 1400 pM.

For a further assay, the target named is T1, human BDCA2. The assay can be described thus: FACS on CHOK1-hBDCA2 cells; EC50 table under the plot, unit from the x axis (nM) [continued) d.]. Here is the method: (§3) The cells were recovered and resuspended to 2×10⁶/mL with FACS buffer (PBS+2% FBS). The cells were added to 3799 cell plates (Corning) at 100 μL/well, and the supernatant was discarded after centrifugation at 300 g. The antibodies were serially diluted with FACS buffer (Id.), the diluted antibodies were added to centrifuged cells and the cells were resuspended. The cells were incubated at 4° C. for 1 h. The incubated cells were then centrifuged at […] for 5 min and washed twice with FACS buffer. 100 μL Donkey anti-Mouse IgG (H+L) Highly Cross-Adsorbed Secondary Antibody-Alexa Fluor 488 (Invitrogen, A21202; 1:1000) secondary antibody was added to the cells, which were washed twice with FACS buffer after incubation at 4° C. for 1 h, resuspended with PBS, analyzed with FACS (BD FACS CantoTM II) instrument. The curve was fitted with GraphPad Prism6, and EC₅₀ values were calculated.
The molecule B5 came in with a concentration giving a half-maximal response (EC50) of 293 pM.

Molecule B6 came in with an EC50 of 302 pM.

B7 returned an EC50 of 707 pM.

For the molecule B8, the EC50 was found to be 723 pM.

The next assay deals with T4, Recombinant Human BDCA2 (human, UniProt Q8WTT0 45-213, limits assumed).
T4 construct: also called hBDCA2 (SPR analyte); human BDCA2 antigen
T4 sequence (looked up): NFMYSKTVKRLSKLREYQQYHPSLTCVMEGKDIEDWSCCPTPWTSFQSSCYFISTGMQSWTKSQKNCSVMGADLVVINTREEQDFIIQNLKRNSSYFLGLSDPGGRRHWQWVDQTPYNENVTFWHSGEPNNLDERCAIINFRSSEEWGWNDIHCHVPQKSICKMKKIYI
Kind of assay: SPR (BIAcore), antibody captured by anti-human IgG (Fc), hBDCA2 as analyte, 1:1 model. How it is done: Then 1 M ethanolamine was injected at 10 μL/min flow rate for 420 seconds, and the excess active carboxyl groups on chip were blocked. The humanized antibodies were injected into a detection channel flow cell at flow rate of 10 μL/min for 60 s for capture after diluting to 1 μg/mL using running buffer. […] The sample hBDCA2 to be tested of each concentration gradient was injected into the detection channel at 30 μL/min flow rate, two samples at 0 concentration were used to remove background signal. The binding and dissociation times between antigen and antibody were 180 and 400 sec, respectively. An analysis of data was performed using Biacore Insight Evaluation Software (Version 2.0. 15.12933). A 1:1 binding model was selected for curve fitting and kinetic parameters were calculated after subtraction of signal of the reference channel (flow cell 1) and at 0 concentration.
With B1, the Kd was 444 pM, the koff was determined as 0.000207 s⁻¹ and the kon is 466000 M⁻¹ s⁻¹.

Turning to B2, the Kd amounted to 200 pM, the koff stood at 0.000118 s⁻¹ and the association rate constant (kon) turned out to be 589000 M⁻¹ s⁻¹.

On to B3, for which the Kd stood at 268 pM, the koff stood at 0.000149 s⁻¹ and the on-rate constant (kon) came to 556000 M⁻¹ s⁻¹.

Take B4: the Kd is 236 pM, the koff was 0.000136 s⁻¹ and the kon is 576000 M⁻¹ s⁻¹.

Another assay addresses T3, cynomolgus BDCA2. Kind of assay: FACS on 293F-cynoBDCA2 cells; EC50 table under the plot, unit from the x axis (nM) [continued) d.]. How it is done: as §3
B5 yielded an EC50 of 566 pM. This lies in the sub-nanomolar range.

In turn, B6 displayed a half-maximal effective concentration (EC50) of 680 pM.

In the case of B7, the EC50 stood at 1900 pM.

B8 had an EC50 of 1960 pM. The EC50 values of the last two molecules are within 1.5-fold of each other.

A further assay has as its target T1, human BDCA2. The assay can be described thus: FACS, CHOK1-humanBDCA2 cells. Here is the method: as §2
The molecule B1 registered an EC50 of 790 pM.

The molecule B2 registered an EC50 of 510 pM.

Take B3: a half-maximal response (EC50) required 640 pM.

In the case of B4, the EC50 stood at 500 pM.

The next assay deals with T5, human FcγRIIA (H167) (human, UniProt P12318 36-218, limits assumed, biotinylated (site not stated)).
T5 construct: also called Fey RIIA (H167)
T5 sequence (looked up): T2 sequence (looked up) with R132H
The assay can be described thus: SPR (BIAcore 8K), biotinylated FcγRIIA (H167) on SA chip, antibody as analyte, 1:1 binding. How it is done: as §1
For B3, the Kd stood at 981000 pM, the koff is 0.431 s⁻¹ and the kon stood at 439000 M⁻¹ s⁻¹.

In the case of B4, the affinity, expressed as Kd, was 941000 pM; the koff turned out to be 0.339 s⁻¹; the kon was found to be 361000 M⁻¹ s⁻¹.

In another assay the target is T1, human BDCA2. The assay can be described thus: cell-based or functional assay. This is another data set of the same source.
With B5, the “IC50 for inhibiting cytokine IFNα release, CpG-A stimulated human PBMC” value turned out to be 4.76 pM.

B6: the “IC50 for inhibiting cytokine IFNα release, CpG-A stimulated human PBMC” value turned out to be 70 pM.

In the case of B7, the “IC50 for inhibiting cytokine IFNα release, CpG-A stimulated human PBMC” value amounted to 6.15 pM.

With B8, the “IC50 for inhibiting cytokine IFNα release, CpG-A stimulated human PBMC” value was 6.23 pM.
